Data as given in the supplement of paper PMC9170038.

Tests used:
MS2 coat protein [1] = assay: apparent KD of MS2 coat protein; designed switch direction (-1 OFF switch, 1 ON switch): 1; higher = weaker reporter binding
Outline: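 Each step of the titration lasted 0.8–1.5 h at the lowest concentration and 10–20 min at the highest. The protein, SNAP-549-labelled MS2 coat protein, went from 0.7 or 1.5 nM doubling to 3 µM over RNA switches transcribed on Illumina chips by stalled E. coli RNA polymerase. Normalised cluster fluorescence was curve-fitted, and the per-design median over clusters is given as apparent KD.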

MS2 coat protein [2] = assay: apparent KD of MS2 coat protein; higher = weaker reporter binding; settings: Eterna round: R107
Outline: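 Designed RNA switches were transcribed on-chip from Illumina sequencing clusters and titrated with SNAP-549-labelled MS2 coat protein in twofold steps from 0.7 or 1.5 nM up to 3 µM. Each step lasted 0.8–1.5 h at first and 10–20 min by the end, in 100 mM Tris-HCl pH 7.5, 80 mM KCl and 4 mM MgCl2, without or with constant ligand. Apparent KD is the median, for each design, of fits to normalised cluster binding curves.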

[3] = input ligand: microRNA oligo, concentration not stated
[4] = Eterna round: R95, input ligand: microRNA oligo, concentration not stated
[5] = Eterna round: R95, input ligand: FMN 200 uM
[6] = Eterna round: R95, input ligand: none
[7] = input ligand: theophylline 20 uM
[8] = input ligand: theophylline 2 mM
[9] = input ligand: tryptophan 2.4 mM

Sequence	apparent KD of MS2 coat protein (MS2 coat protein [1]; [3]) [nM]	apparent KD of MS2 coat protein (MS2 coat protein [2]; input ligand: arginine 13.2 mM) [nM]	apparent KD of MS2 coat protein (MS2 coat protein [2]; input ligand: none) [nM]	apparent KD of MS2 coat protein (MS2 coat protein [2]; [7]) [nM]	apparent KD of MS2 coat protein (MS2 coat protein [2]; [8]) [nM]	apparent KD of MS2 coat protein (MS2 coat protein [2]; [9]) [nM]	other results
GCCAUCGUAUGAGGAUAUGGCACCGAAACGGUGCCAGAAGGCAUGUCAAUUGACAUGAGGAUCACCCAUGUAUUAUCGAUGGCA [Mat - Same State NG 1 - JL mod - D89] (Eterna round: R96, puzzle: Same State NG 1)	454						
CUAUUAGGAUGAGGAUAUGCAGAGGAUCACCCUGUAGAAGGCAAUAGAUGAGGAUAUGCAGAGGAUCACCCUGUAGAAGGCAAC [pwkr ssNG DX.3] (Eterna round: R96, puzzle: Same State NG 1)	98.9						apparent KD of MS2 coat protein (MS2 coat protein [1]; input ligand: FMN 200 uM): 423 nM; apparent KD of MS2 coat protein (MS2 coat protein [1]; input ligand: none): 177 nM
UCUAGACAUGAGGAUCACCCAUGUCGAUAUGGCGCAGGAUAUCGGUACUCAUAGAGUACGCGAGAAGGGUGACUUC [Same State 1 - Mod of Vinnie Gere v.2] (puzzle: Same State 1)							apparent KD of MS2 coat protein (MS2 coat protein [1]; [4]): 173 nM
AAGAAAUCCGCAGGAUAUCCUAAGCCGGGCUUAGGAGAAGGGUGGCCACAUGAGGAUCACCCAUGUAAAAGCUGAAUCACAGCC [Aerququ] (Eterna round: R96, puzzle: Same State NG 1)	388						apparent KD of MS2 coat protein (MS2 coat protein [1]; input ligand: FMN 200 uM): 237 nM; apparent KD of MS2 coat protein (MS2 coat protein [1]; input ligand: none): 523 nM
AAAGCCCGUGCUAAGGAUAUGCGUACUCCUACAUGAGGAUCACCCAUGUCCCGCCGAAAAGGAAGGCAGAAGGUAGCACGAGCAA [Teerarti] (puzzle: Same State 2)							apparent KD of MS2 coat protein (MS2 coat protein [1]; [5]): 53.7 nM; apparent KD of MS2 coat protein (MS2 coat protein [1]; [4]): 96.5 nM; apparent KD of MS2 coat protein (MS2 coat protein [1]; [6]): 102 nM
UUAUCACAUGAGGAUCACCCAUGUUAUACUUUUUUAGGAUAUUUUAUGUAUGACCAAAUAAAAGAAGGAGGAAUAA [flagellum_key_01] (puzzle: Same State 1)							apparent KD of MS2 coat protein (MS2 coat protein [1]; [5]): 31.2 nM; apparent KD of MS2 coat protein (MS2 coat protein [1]; [4]): 44.4 nM; apparent KD of MS2 coat protein (MS2 coat protein [1]; [6]): 47 nM
AGAGGAGGAGCAGGAUAUUCGACGGAGGACGUGGAAGAAGGGUUCAUGCGAUGACAUGAGGAUCACCCAUGUACCGCGCGUCGA [AK SSNG1-V2-15.1] (Eterna round: R96, puzzle: Same State NG 1)	106						apparent KD of MS2 coat protein (MS2 coat protein [1]; input ligand: FMN 200 uM): 143 nM; apparent KD of MS2 coat protein (MS2 coat protein [1]; input ligand: none): 478 nM
UAAUAAAAGGAUAUACAUGAGGAUCACCCAUGUCCGUCUGCCAAGGAUAUCUAGGAUCAAGCAGCAGAGAAGGUGGCACGCCAC [Eternabot solution 35] (Eterna round: R96, puzzle: Same State NG 3)	17.2						apparent KD of MS2 coat protein (MS2 coat protein [1]; input ligand: FMN 200 uM): 22.3 nM; apparent KD of MS2 coat protein (MS2 coat protein [1]; input ligand: none): 18.3 nM
ACCCGCGACGGAGGAUAUGGGCACUCGGCGAAAUAAACCGCCAUAACAUGAGGAUCACCCAUGUCCCAGAAGGCCGCCGCAAAC [Leatve] (Eterna round: R96, puzzle: Same State NG 2)	255						apparent KD of MS2 coat protein (MS2 coat protein [1]; input ligand: FMN 200 uM): 92.3 nM; apparent KD of MS2 coat protein (MS2 coat protein [1]; input ligand: none): 505 nM
UUACUCAUGUAAGGAUAUGCAGCCGAAACGGCUGCAGAAGGUACUAUAAUACAUGAGGAUCACCCAUGUCUUUUUAAUUUUUAC [Mat - Same State NG 1 - JL mod - D70] (Eterna round: R96, puzzle: Same State NG 1)	37						apparent KD of MS2 coat protein (MS2 coat protein [1]; input ligand: FMN 200 uM): 47.5 nM; apparent KD of MS2 coat protein (MS2 coat protein [1]; input ligand: none): 44.1 nM
CUGAGCAAUCAAGGAUAUCACGUCGAUUAGACGUGAGAAGGUGAUCAUUACAUGAGGAUCACCCAUGUAUUACAUGGAGCUCAG [Brourd's SSNG1/1-A2 mod 2] (Eterna round: R96, puzzle: Same State NG 1)	833						
GCAGAACAUGAGGAUCACCCAUGUCUCUAAUAUUGAGGAUAUGGGCACGGUAUAUCCGAACCAGAAGGCGAACUGC [SS1 Teenbexe 16] (puzzle: Same State 1)							apparent KD of MS2 coat protein (MS2 coat protein [1]; [5]): 420 nM; apparent KD of MS2 coat protein (MS2 coat protein [1]; [4]): 322 nM; apparent KD of MS2 coat protein (MS2 coat protein [1]; [6]): 431 nM
AUUACUAACAUAGGAUAUCAUGCGAAAAUUGCGUGAGAAGGGUGGACACUGUCUUUCUCGGAGUACAUGAGGAUCACCCAUGUG [SameState NG1 #68] (Eterna round: R96, puzzle: Same State NG 1)	138						apparent KD of MS2 coat protein (MS2 coat protein [1]; input ligand: FMN 200 uM): 564 nM; apparent KD of MS2 coat protein (MS2 coat protein [1]; input ligand: none): 147 nM
AGCGGCUCGAAAGAGUCGCACUCAUGUGAAGGAGCGCGCGUAAGCGCAGGUAGGUCGCACAUGAGGAUCACCCAUGUACCUUCUA [MAT - Exclusion Arginine A - Mod of Eli - D21]		68.5	235	206	262	118	
AGAUGCCACUGUGGAUAGCACGAUGCCGAUACCAGCUAGGAAACUAGCCCUUGGCAGCGGUACAUGAGGAUCACCCAUGUAUCCU [EThA NP+V+V2 #9]		12.2		18.3		12.9	
GGUAGCAGGACUGAUACCAGUCCAGCGAAUCAUACGACGCAACAUGAGGAUCACCCAUGUGACCCUUGGCAGCAGUCUGCUACCG [Same State Theophylline B GF 29]		28.9		23		25.7	
AUCUGUAUGUUUUCGUGUUUUAUUACAGAUACCAGACUAUACGUUGUCCCUUGGCAGCUGGAUGACAUGAGGAUCACCCAUGUUG [#27 Exclusion-TheophyllineA]		24		41.2		31.8	
GCGUUCUCUGCGGCCGCCACUCAAGGAGCUACAUAGCUCCUAGACAUGAGGAUCACCCAUGUGGCGAGGACCGGGUAGAUCCUUA [Same State Typptophan B GF7]		76.3		359	337		
GGUCUCGCGGGCGAUACCAGCUUGAUCGUACUGGCCUGGUACAUGAGGAUCACCCAUGUAAGCCCUUGGCAGCGCGCGCGAGACC [#1 Exclusion - Theophylline B Attempt #5 (HarryS)]		10.4	10.6	16.4	32.1	11.9	
UUGGUACAUGAGGAUCACCCAUGUACUGAAGGAGCGGGACGAAUCUCAGGUAGGUCGCAGACAUGAGGAUCACCCAUGUAUUGGU [Exclusion Arginine A GF 16]		18.9	13	16.4	19	16.5	
UGUAUGUGAUCUGAUACCAGCCUCAUAGCUUGAGGAUCACCCAAGUGGAGCGGAAACGCUGGCCCUUGGCAGCAGAUCGCAUACU [TheoBS 1 #AlternativeMS2]		252	471	199	13.5	516	
AGCAACAAGUCGGCCGCCACUCAAUAAACAUGAGGAUCACCCAUGUAAAUAACAUGAUAAUAAUAGAGGACCGGGACAGUUGCAU [JR_SSTryptoB_Sub015]		13		17.1	15.1		
AAAAGAGGUGGAAGGAGCGGGAGACAUGAGGAUCACCCAUGUGAUAUGACAAGAGGAUCAGCCCAGGUAGGUCGCCAUGUCGAAA [pbbbmullin]		17.9	71.1	53.1	103	50	
AACAUGAGGAUCACCCAUGUCGGGCCGGUGCGAGGACCGGUACGGCCGCCACUCGAGACAUGAGGAUCACCCAUGUAGGGCGAGA [Exclusion Tryptophan A GF22]		44	79.7	70.7	80.7	115	
CUCCCUUCGGCGGCCGCCACUAACAGUUUAAUGGACUUUCGGGUCCACAUGAGGAUCACCCAUGUUAGGACCGGGCCCUUGCUCU [theeternabot_exclusion_MS2_Trp_B_39]		8.8	9.2	17.5	10.6	10.9	
UAUACAUGGUAUAAAUAUAUAUAUAAGAAACGAGGACCGGUACGGCCGCCACUCGUGCCGGAAACAUGAGGAUCACCCAUGUAUU [AK1 Exclusion TrypA mod IceBolt]		21		39.3	49.6		
CGAUAUAUACGAAGGAGCGACAUGAGGAUCACCCAUGUCUACCACGUCGAAAGACGCUCAUGUCAGGUAGGUCGCGUAUAUAUCG [Astros-Eli-mod9]		56.7	137	123	239	117	
GUUGGACUUUCGGCCGCCACUGAGAGAGUCGUGUGAACAUGAGGAUCACCCAUGUAAUAUAUAUACAGGACCGGGAGGGUUGUAA [4.N]		8.94	11.3	22.2	19.7	11.3	
GAGCUGAUGUAGAGCCUUUAGUUCUGAGAUACCAGUACAGAAAUGUACCCUUGGCAGCUCAGCUUUACAUGAGGAUCACCCAUGU [Ex Theophylline A 17]		20		27.7		23.5	
CUAUAAAUAUGAAGGAGCGUCGAAAAUGGGUAAACAUGAGGAUCACCCAUGUAAAGGGAACGACAGGUAGGUCGCAUAUUUAUAG [AstromonsSSArgB#11]		139	180	188	257	219	
